Data taken from patent US20230159601A1 (SEOUL NATIONAL UNIVERSITY HOSPITAL, published 2023).

Target: T1, recombinant human proprotein convertase subtilisin/kexin type-9 (rhPCSK9) (human, UniProt Q8NBP7 31-692, limits assumed)
T1 construct: Elsewhere it is called His-rhPCSK9; also called recombinant hPCSK9; recombinant human PCSK9
Experiment: surface plasmon resonance, direct binding analysis between rhPCSK9 and CAP1 (FIG. 1E)

T1 sequence (Q8NBP7 31-692 limits assumed): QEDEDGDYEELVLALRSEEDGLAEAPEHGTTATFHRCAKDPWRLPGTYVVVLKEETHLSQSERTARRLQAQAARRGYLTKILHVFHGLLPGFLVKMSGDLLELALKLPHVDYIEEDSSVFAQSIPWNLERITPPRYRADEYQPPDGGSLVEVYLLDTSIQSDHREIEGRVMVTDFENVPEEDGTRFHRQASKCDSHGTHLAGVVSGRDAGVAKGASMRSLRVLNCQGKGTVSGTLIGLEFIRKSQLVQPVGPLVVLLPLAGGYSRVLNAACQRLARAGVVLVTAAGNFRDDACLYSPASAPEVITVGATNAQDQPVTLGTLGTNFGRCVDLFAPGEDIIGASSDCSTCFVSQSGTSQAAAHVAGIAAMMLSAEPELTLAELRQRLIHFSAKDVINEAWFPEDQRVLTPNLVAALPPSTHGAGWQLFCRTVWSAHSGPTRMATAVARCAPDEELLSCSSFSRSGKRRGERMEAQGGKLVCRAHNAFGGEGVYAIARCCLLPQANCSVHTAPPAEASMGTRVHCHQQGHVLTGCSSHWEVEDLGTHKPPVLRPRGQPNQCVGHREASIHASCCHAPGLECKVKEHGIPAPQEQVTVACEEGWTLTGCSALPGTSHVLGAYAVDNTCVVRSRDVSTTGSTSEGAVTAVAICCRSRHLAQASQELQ

Kd: 1010 nM
B1: human adenylyl cyclase-associated protein 1 (CAP1), wild type (other)
chain: MADMQNLVERLERAVGRLEAVSHTSDMHRGYADSPSKAGAAPYVQAFDSLLAGPVAEYLKISKEIGGDVQKHAEMVHTGLKLERALLVTASQCQQPAENKLSDLLAPISEQIKEVITFREKNRGSKLFNHLSAVSESIQALGWVAMAPKPGPYVKEMNDAAMFYTNRVLKEYKDVDKKHVDWVKAYLSIWTELQAYIKEFHTTGLAWSKTGPVAKELSGLPSGPSAGSGPPPPPPGPPPPPVSTSSGSDESASRSALFAQINQGESITHALKHVSDDMKTHKNPALKAQSGPVRSGPKPFSAPKPQTSPSPKRATKKEPAVLELEGKKWRVENQENVSNLVIEDTELKQVAYIYKCVNTTLQIKGKINSITVDNCKKLGLVFDDVVGIVEIINSKDVKVQVMGKVPTISINKTDGCHAYLSKNSLDCEIVSAKSSEMNVLIPTEGGDFNEFPVPEQFKTLWNGQKLVTTVTEIAG
notes: also called hCAP1; wtCAP1
